Molecular target: CCR5 (UniProt P51681)
Assay: cell-based or functional assay

UniProt P51681, sequence (P51681 whole entry): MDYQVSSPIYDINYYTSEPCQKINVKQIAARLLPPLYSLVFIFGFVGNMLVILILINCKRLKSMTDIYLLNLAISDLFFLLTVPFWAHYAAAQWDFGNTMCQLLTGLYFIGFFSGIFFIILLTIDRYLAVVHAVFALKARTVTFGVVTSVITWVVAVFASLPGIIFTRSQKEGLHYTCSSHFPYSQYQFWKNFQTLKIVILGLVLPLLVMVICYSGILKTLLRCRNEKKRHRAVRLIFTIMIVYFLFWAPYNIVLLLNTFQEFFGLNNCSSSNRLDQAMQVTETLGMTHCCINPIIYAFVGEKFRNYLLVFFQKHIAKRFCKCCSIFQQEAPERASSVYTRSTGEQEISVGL

Substance	Average infectivity IC50 (cell-free viral infection assay) [nM]	Cell-fusion result for comparison (IC50) [nM]	Mean Relative Potency (IC50 of cell fusion inhibition relative to AOP-RANTES = 100) (relative to AOP-RANTES = 100)	percentage fusion inhibition at the lowest dilution [%]	EC50, HeLa P4-CCR5/HeLa-Env-ADA cell fusion [nM]
NNY-P-Y3Chg-RANTES (4-68) (from UniProt P13501 25-91) (ligand)	0.012	0.026	7	> 50	–
NNY-P-Y3tbuA-RANTES (4-68) (from UniProt P13501 25-91) (ligand)	0.014	0.038	7	> 50	–
NNY-P2Thz-Y3tButA-RANTES (4-68) (from UniProt P13501 25-91) (ligand)	–	–	4	> 50	–
n-nonanoyl-RANTES (2-68), CH3-(CH2)7-C(O)-RANTES (2-68) (from UniProt P13501 25-91) (ligand)	0.024	0.097	–	–	0.323
NNY-P2Thz-Y3Chg-RANTES (4-68) (from UniProt P13501 25-91) (ligand)	–	–	2	> 50	–
AOP-RANTES-K(palmitoyl)-G (from UniProt P13501 25-91) (ligand)	–	–	45	–	–
aminooxypentane-RANTES (2-68), CH3-(CH2)4-O-N=CH-CO-RANTES (2-68) (from UniProt P13501 25-91) (ligand)	0.145	0.48	100	–	1.81
